The results in this text go back to patent publication US20180171001A1 (ROCKEFELLER UNIVERSITY, published 2018).

Common to all, as to test: cell-based or functional assay
Test [1] addresses Tro11 (Human immunodeficiency virus 1).
The target of test [2] is 6535_3 (Human immunodeficiency virus 1).
In test [3] the target is SC4226618 (Human immunodeficiency virus 1).

B1: chimeric IgG: 8ANC195 HC paired with mature LC with CDRL2 reverted to germline (antibody, V domains shown)
VH: QIHLVQSGTEVKKPGSSVTVSCKAYGVNTFGLYAVNWVRQAPGQSLEYIGQIWRWKSSASHHFRGRVLISAVDLTGSSPPISSLEIKNLTSDDTAVYFCTTTSTYDKWSGLHHDGVMAFSSWGQGTLISVSA
VL: DIQMTQSPSTLSASIGDTVRISCRASQSITGNWVAWYQQRPGKAPRLLIYKASALLGGVPSRFSGSAAGTDFTLTIGNLQAEDFGTFYCQQYDTYPGTFGQGTKVEVK
On to B1, for which the “IC50 (fold change over 8ANC195 IgG), pseudovirus neutralization [panel B]” value came out at 62 fold in test [1], 31 fold in test [2] and 99 fold in test [3].
